In the supplement of paper PMC12764529:
± gives the half width of the 95% confidence interval.

Key:
[1] = folding stability dG unfold from trypsin proteolysis; higher = more stable
Method in brief: (§1)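 Unfolding free energy was derived, per protease or combined, by relating Bayesian-fitted K50 values from sequencing counts to a sequence-predicted unfolded-state K50 and a shared folded-state K50. The underlying digests exposed cysteine-free mini-proteins under 80 residues, in a PA-tagged cDNA display construct, to trypsin and chymotrypsin at 11 threefold-diluted concentrations and to a no-protease condition. A filter kept only designs with AlphaFold2 dimer inter-PAE above 15.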

[2] = folding stability dG unfold from chymotrypsin proteolysis; higher = more stable
Method in brief: as §1

[3] = folding stability dG unfold (combined trypsin and chymotrypsin); higher = more stable
Method in brief: as §1

| Sequence | folding stability dG unfold [1] [kcal/mol] | folding stability dG unfold [2] [kcal/mol] | folding stability dG unfold [3] [kcal/mol] |
| --- | --- | --- | --- |
| SAGGSAYGYFYEYKIRFNGQDLSIALPAGDMEKLKDLPGVEIEPRRPEEPPPPPKEEERDPDGKKKSAGGSA [r15_443_TrROS] | 2.3 ± 0.18 | 2.98 ± 0.071 | 2.8 ± 0.24 |
| SAGKIPPIKDIEPNPDNGMLMITIPFPDDGKLKVRIENKGQDQEYEFPPGMSFMIPPSNAPIKIEIEWDSAG [r14_96_TrROS] | 0.858 ± 0.019 | 0.82 ± 0.069 | 0.874 ± 0.098 |
| SAGGSAGGGPPSPVQTSTTSFSVSGDSSVTNVTVVTLPDGSLLVETTVFPSSGGSVSSLSSIPASAGGSAGG [r6_670_JUSTAS] | 1.27 ± 0.031 | 0.218 ± 0.21 | 0.855 ± 0.058 |
| SAGGIIPIENASWDELLNALKEAAEKGDPNVTITFQDPGRPYWIQIDPDENNIEVEHPNGETWRFKISAGGS [r16_481_TrROS] | 0.749 ± 0.089 | 0.995 ± 0.14 | 0.905 ± 0.18 |
| SAGGSAGGSIKIPPGQMIHIRYEHGGKKREYSFTIDPNDGKIDEIIPPDNLPGYKIEEIHIVPSAGGSAGGS [r12_6_TrROS] | -0.431 ± 0.33 | 0.729 ± 0.3 | 0.307 ± 0.34 |
| SAPKILKVETFPDGSIKVEIPLPETGAIVTITVDPDGNVVVEFYPPKSGKPVRKTIPGKTIEEVLKELGSAG [r14_760_TrMRF] | 1.41 ± 0.086 | 1.83 ± 0.052 | 1.63 ± 0.12 |
| SAGGSVVPLPLDETVELTFDGTTATFTALPDGTATATFTGPDSTARATFPPDGAVTVTVPGAGTTAASAGGS [r16_725_JUSTAS] | -1.18 ± 0.62 | -0.268 ± 0.19 | -0.404 ± 0.19 |
| SAGGSAGGSKVFTVEELENMTPEEIRALIKKSKKPVIIVAKSEEEKKRAAELLKELGVEVKVLSAGGSAGGS [r12_97_TrROS_Hall] | 3.73 ± 0.12 | 3.6 ± 0.057 | 3.7 ± 0.11 |
| SAGGKILIYPGSIEEAIEALKANPNTTVLVISPDGTLIEITVEELGPGPFKIDIKVIPLLPPLKPDEASAGG [r13_56_TrMRF] | 1.6 ± 0.043 | 2.212 ± 0.021 | 1.97 ± 0.069 |
| SAGGSAGGSAGAPPDVEEVTVTVTITNPDGSTTTTTVTATPEELAALAAAPGRPTAVSAESAGGSAGGSAGG [r17_313_JUSTAS] | 0.635 ± 0.072 | 0.486 ± 0.015 | 0.595 ± 0.17 |
| SAGGSAGGAVVKLPGNTVMTIDPSTGIAYVTDPSGKVTKYTLTKFPDKTLWEEEPVEEIPSDLLSAGGSAGG [r6_324_JUSTAS] | 1.53 ± 0.09 | 1.44 ± 0.16 | 1.55 ± 0.23 |
| SAGGSAGGSAGGKTVWIPWDDLEELKDLPPGKKRTIHLWNPKNGRWYRITVTDNNIEIERSAGGSAGGSAGG [r7_765_TrROS] | 2.36 ± 0.061 | 3.088 ± 0.013 | 2.86 ± 0.078 |
| SAGGSAGGSAGVIRVKLKDGPVREIPLEDVPPELLNTPELLAAIEALAREAGYEIESIEASAGGSAGGSAGG [r11_467_TrMRF] | 1.7 ± 0.038 | 2.22 ± 0.029 | 2.03 ± 0.056 |
| SAMLPSIIIAKAKEAIEKSGKPVPVVIKIPVYKKENGPPVSLEKAKEIFEKLKEAFPDVPIIIELEEPESAG [r14_636_TrMRF] | 0.875 ± 0.011 | 0.539 ± 0.034 | 0.766 ± 0.048 |
| SAGGSANNPKPRIIEIPIQFDWPPGDPQQMRNLAETIADEFSDPGYRVEIDEFTPDYFMFNIKIEWSAGGSA [r15_563_TrROS] | 2.13 ± 0.1 | 2.937 ± 0.025 | 2.72 ± 0.12 |
| SAGGSAGGSKITSIQPHDGFWRIEIKPDGKPQERWINMDELPPNIKIPPGYKVKIEPFSPGDMSAGGSAGGS [r12_1005_TrROS] | -0.0148 ± 0.14 | -0.769 ± 0.92 | -0.26 ± 0.26 |
| SAHTWEIWFPPGLTPEEIQEKLKEEFPGYEIDVDVERDPEPGWYRIEVTMKDPQQRRRVQKKIREILQESAG [r14_443_TrROS] | 2.34 ± 0.12 | 2.39 ± 0.048 | 2.4 ± 0.14 |
| SAGPWIMIPLPPELREIAKKAGMSPDDVETVEIPLKFGDREVKIEVEVMPDDGWIMVRFKSNGKEFMIPSAG [r5_545_TrROS] | 1.55 ± 0.1 | 3.22 ± 0.13 | 2.38 ± 0.29 |
| SAGGSAGGSALAEELAAKYPGLQVEVTRVEVEREVTDADGRKRTERVERLEIRVVKPGEELSAGGSAGGSAG [r3_358_TrROS_Hall] | 0.5 ± 0.034 | -0.0574 ± 0.06 | 0.164 ± 0.18 |
| SASMEAALAKVEEITAEPSWELVGVSPEGVFTIRNPETGTEIVIEIKVTSDGKGYKVTIPSKTVVPAPESAG [r14_20_JUSTAS] | 1.45 ± 0.096 | 1.3 ± 0.13 | 1.38 ± 0.12 |
| SAGGSAGGSAGGKKTITVPKGAVVRITYKNGEKKEVKAGETITIEDLPEDVKIEVVKVKKSAGGSAGGSAGG [r7_968_TrROS_Hall] | 1.73 ± 0.06 | 2.44 ± 0.03 | 2.19 ± 0.094 |

| Sequence | folding stability dG unfold [1] [kcal/mol] | folding stability dG unfold [2] [kcal/mol] | folding stability dG unfold [3] [kcal/mol] |
| --- | --- | --- | --- |
| SAGGSAGGSALDSLVPDIDLRVRVEPVPDDPSILRADVELSDGLVLEVEFLPSGVARVSLSGKGSAGGSAGG [r6_122_TrMRF] | -0.0307 ± 0.084 | -0.246 ± 0.11 | -0.0927 ± 0.058 |
| SAGGSAGGSGSSTSANAGGIVTSSSTVPLPPDTRPVSVSTSTPSSKPVKTTVLPDKTVTTPLGSAGGSAGGS [r12_994_JUSTAS] | 1.01 ± 0.035 | 1.55 ± 0.028 | 1.38 ± 0.048 |
| SAGGSAGGSAKKKVEIKIEIEEVTNKDGKKYIKIKIEVKVSEEVKKELADALKKAGFKVEPSAGGSAGGSAG [r3_157_TrROS_Hall] | 1.54 ± 0.091 | 2.43 ± 0.093 | 2.17 ± 0.16 |
| SASVEEVIEEAKELAKKLGAYVIVTVYKNNKKIGTYEYPSPSKNSPPTSITIESPDPNYKVKITIYPPGSAG [r14_728_JUSTAS] | 2.53 ± 0.062 | 3.12 ± 0.032 | 2.94 ± 0.092 |
| SAGGSAGGSAGVPSLEEVLAELEANPNSDAVVELPDGTRVRIRVERLPGGELRVEREEVLSAGGSAGGSAGG [r11_300_JUSTAS] | 1.21 ± 0.029 | 1.78 ± 0.049 | 1.6 ± 0.078 |
| SAGGMKITLPPGAEITEVFELPDGQLLLRVRHKDTGKTEVVPASDLEIEIEPGEEVEVEIFRVPKEDLSAGG [r13_173_TrROS_Hall] | 1.38 ± 0.069 | 1.45 ± 0.13 | 1.39 ± 0.14 |
| SAGMIEITLYPPKAVVDVTVTIGGESESRTIPVDGKSKEEVIEEAREEVKAEYPDKAITTKVTEVPGDGSAG [r5_180_JUSTAS] | -0.437 ± 0.18 | 1.03 ± 0.098 | 0.641 ± 0.071 |
| SAGGKTVEVEFEAPESLSPEEIAAAILAAAPPGYFVKVEEVEVRDRPDGEKVILYKATFYDPDTGDFDSAGG [r13_12_TrMRF] | 2.72 ± 0.081 | 2.804 ± 0.021 | 2.73 ± 0.048 |
| SAGGSAGGSKVEVKEFEFKANGSKALIEKLEDGSVKIIVLGEEPKEYEISPEEPIVILPGFEVSAGGSAGGS [r12_1003_TrMRF] | -0.341 ± 0.068 | -0.172 ± 0.1 | -0.172 ± 0.09 |
| SAGFYFRITEITVNPDAGKLTIRNPNGQEQEIPPGGKISIKMRFYRFNDNGGKPETFEMEHTIPIPPGDSAG [r14_366_TrROS] | 2.62 ± 0.042 | 3.43 ± 0.085 | 3.15 ± 0.12 |
| SAGGSAGGSGYTTTTSTSISLSPTSFTVTTTTTTTDPVTKTTTVTTTTTTVPLPPSLLSLVSSSAGGSAGGS [r12_885_JUSTAS] | 2.21 ± 0.17 | 2.97 ± 0.052 | 2.5 ± 0.2 |
| SAGGMTLKIRVKDKEKALEALKALPGIEVKEVKVEKNENGELTVTVESKEALDALKKAGIEVEEIEPSAGGS [r16_381_TrROS_Hall] | 2.33 ± 0.15 | 3.18 ± 0.087 | 2.9 ± 0.16 |
| MEAEELATTLAAEALAPLPRPFEIDPENNEVRVPGGGELAELPIRVVLVDEDGEIVEERIVPVRIRAEEPGS [r1_318_TrMRF] | -0.362 ± 0.14 | 0.878 ± 0.083 | 0.542 ± 0.11 |
| SAGPPPVKVTVTADYVIEDGKPIVTYTLTFPDGSTTTVTSDPETLVEWLKQHYPDIDVLNFNSGTAPAASAG [r5_25_JUSTAS] | 2.78 ± 0.068 | 4.05 ± 0.047 | 3.77 ± 0.13 |
| SAGGSAGGKETKTITMIIKVKDENGKELKAGDKVEIEINGKKITIEVTYNKKTGYLVVKATIKPSAGGSAGG [r6_657_TrROS_Hall] | 2.47 ± 0.096 | 3.87 ± 0.11 | 3.37 ± 0.17 |
| SENKPVTVLVNVTKNEDGTYTARVFVFDENGKLLAEEEVEAPLEKAVELVEALKKAYPNAKVVAVFTEGLSA [r9_374_TrMRF] | 3.63 ± 0.23 | 4.81 ± 0.21 | 4.67 ± 0.2 |
| SAGPVKIQIEPDNGEEFEFRLPPNVSEIETSGDKFIIRFPPGMMFKIEIDEELPPGDTVPIRILDIVPSAGG [r19_274_TrROS] | 1.33 ± 0.057 | 1.26 ± 0.15 | 1.21 ± 0.17 |
| SMEEEEEEPEPAPVVVITVEPGETVEQVRAAAREAAEKGMRIVITGLSEEEAKAIAEELGLDVEIEVVEPSA [r9_1207_TrROS_Hall] | 3.01 ± 0.33 | 1.47 ± 0.16 | 2.69 ± 0.78 |
| SAGGSAKPELVKKLKEALEEEFPDLKVEVVKVDKKNKKIYIKVKSEEEKKRIAELLKKLGIEVEIESAGGSA [r15_196_TrROS_Hall] | 3.06 ± 0.25 | 3.33 ± 0.079 | 3.18 ± 0.21 |
| SAGELELELELEFELEDGYRVEVRLRLRVRPDGSVRMELEVRIEPLPPPPPVRVVVVREDDPEALRALSAGG [r19_12_TrROS_Hall] | 2.73 ± 0.1 | 4.49 ± 0.19 | 3.6 ± 0.61 |
| SAGGSAAKITEVEVEELEDGEVLIRVKVKPEDIDALLELAKKLPEENIELVEKREDGYYVLRIKRPSAGGSA [r15_386_TrROS_Hall] | 1.53 ± 0.043 | 1.87 ± 0.16 | 1.67 ± 0.15 |
